# B1: scDb/scFv-Fc (1-3)+2, trivalent trispecific anti-EGFRxanti-HER3×anti-CD3 (other)
# chain 1: EVQLVESGGGLVQPGGSLRLSCAASGFSLTNYGVHWVRQAPGKGLEWLGVIWSGGNTDYNTPFTSRFTISRDNSKNTLYLQMNSLRAEDTAVYYCARALTYYDYEFAYWGQGTTVTVSSGGGGSQAGLTQPPAVSVAPGQTASITCGRDNIGSRSVHWYQQKPGQAPVLVVYDDSDRPAGIPERFSGSNYENTATLTISRVEAGDEADYYCQVWGITSDHVVFGGGTKLTVLGGGGSGGGGSGGGGSQVQLQQSGPGLVKPSQTLSLTCAISGDSVSSNRAAWNWIRQSPSRGLEWLGRTYYRSKWYNDYAQSLKSRITINPDTPKNQFSLQLNSVTPEDTAVYYCARDGQLGLDALDIWGQGTMVTVSSGGGGSDIQLTQSPSFLSASVGDRVTITCRASQSIGTNIHWYQQKPGKAPKLLIKYASESISGVPSRFSGSGSGTEFTLTISSLQPEDFATYYCQQNNNWPTTFGAGTKLEIKRAAADKTHTCPPCPAPPVAGPSVFLFPPKPKDTLMISRTPEVTCVVVDVSHEDPEVKFNWYVDGVEVHNAKTKPREEQYNSTYRVVSVLTVLHQDWLNGKEYKCKVSNKGLPSSIEKTISKAKGQPREPQVCTLPPSRDELTKNQVSLSCAVKGFYPSDIAVEWESNGQPENNYKTTPPVLDSDGSFFLVSKLTVDKSRWQQGNVFSCSVMHEALHNHYTQKSLSLSPGK
# chain 2: DIQMTQSPSSLSASVGDRVTITCRASQDIRNYLNWYQQKPGKAPKLLIYYTSRLHSGVPSRFSGSGSGTDFTFTISSLQPEDIATYYCQQGNTLPWTFGQGTKLEIKRGGGGSGGGGSGGGGSQVQLVQSGAEVKKPGSSVKVSCKASGGTFSGYTMNWVRQAPGQGLEWMGLINPYKGVSTYNGKFKDRVTITADKSTSTAYMELSSLRSEDTAVYYCARSGYYGDSDWYFDVWGQGTLVTVSSAAADKTHTCPPCPAPPVAGPSVFLFPPKPKDTLMISRTPEVTCVVVDVSHEDPEVKFNWYVDGVEVHNAKTKPREEQYNSTYRVVSVLTVLHQDWLNGKEYKCKVSNKGLPSSIEKTISKAKGQPREPQVYTLPPCRDELTKNQVSLWCLVKGFYPSDIAVEWESNGQPENNYKTTPPVLDSDGSFFLYSKLTVDKSRWQQGNVFSCSVMHEALHNHYTQKSLSLSPGK
# notes: Trispecific antibody: 1 = HER3, 2 = CD3, 3 = EGFR; also called scDbhu225x3-43-Fc(hole)Δab + scFvhuU3-Fc(knob)Δab
# B2: scDb/Fab-Fc (1-3)+2, trivalent trispecific anti-EGFRxanti-HER3×anti-CD3 (other)
# chain: B1 chain 1
# heavy: QVQLVQSGAEVKKPGSSVKVSCKASGGTFSGYTMNWVRQAPGQGLEWMGLINPYKGVSTYNGKFKDRVTITADKSTSTAYMELSSLRSEDTAVYYCARSGYYGDSDWYFDVWGQGTLVTVSSASTKGPSVFPLAPSSKSTSGGTAALGCLVKDYFPEPVTVSWNSGALTSGVHTFPAVLQSSGLYSLSSVVTVPSSSLGTQTYICNVNHKPSNTKVDKKVEPKSCDKTHTCPPCPAPPVAGPSVFLFPPKPKDTLMISRTPEVTCVVVDVSHEDPEVKFNWYVDGVEVHNAKTKPREEQYNSTYRVVSVLTVLHQDWLNGKEYKCKVSNKGLPSSIEKTISKAKGQPREPQVYTLPPCRDELTKNQVSLWCLVKGFYPSDIAVEWESNGQPENNYKTTPPVLDSDGSFFLYSKLTVDKSRWQQGNVFSCSVMHEALHNHYTQKSLSLSPGK
# light: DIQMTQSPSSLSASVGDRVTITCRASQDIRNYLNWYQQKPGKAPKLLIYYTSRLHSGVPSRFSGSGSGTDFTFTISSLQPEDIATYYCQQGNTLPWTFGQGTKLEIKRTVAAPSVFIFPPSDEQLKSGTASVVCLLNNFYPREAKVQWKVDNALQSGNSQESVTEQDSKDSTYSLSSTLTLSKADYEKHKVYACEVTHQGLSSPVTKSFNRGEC
# notes: Trispecific antibody: 1 = HER3, 2 = CD3, 3 = EGFR; also called scDbhu225x3-43-Fc(hole)Δab + FdhuU3-Fc(knob)Δab + VLhuU3-CLK
# B3: scDb/scFv-Fc (2-1)+3, trivalent trispecific anti-EGFRxanti-HER3×anti-CD3 (other)
# chain 1: QVQLVQSGAEVKKPGSSVKVSCKASGGTFSGYTMNWVRQAPGQGLEWMGLINPYKGVSTYNGKFKDRVTITADKSTSTAYMELSSLRSEDTAVYYCARSGYYGDSDWYFDVWGQGTLVTVSSGGGGSQAGLTQPPAVSVAPGQTASITCGRDNIGSRSVHWYQQKPGQAPVLVVYDDSDRPAGIPERFSGSNYENTATLTISRVEAGDEADYYCQVWGITSDHVVFGGGTKLTVLGGGGSGGGGSGGGGSQVQLQQSGPGLVKPSQTLSLTCAISGDSVSSNRAAWNWIRQSPSRGLEWLGRTYYRSKWYNDYAQSLKSRITINPDTPKNQFSLQLNSVTPEDTAVYYCARDGQLGLDALDIWGQGTMVTVSSGGGGSDIQMTQSPSSLSASVGDRVTITCRASQDIRNYLNWYQQKPGKAPKLLIYYTSRLHSGVPSRFSGSGSGTDFTFTISSLQPEDIATYYCQQGNTLPWTFGQGTKLEIKRAAADKTHTCPPCPAPPVAGPSVFLFPPKPKDTLMISRTPEVTCVVVDVSHEDPEVKFNWYVDGVEVHNAKTKPREEQYNSTYRVVSVLTVLHQDWLNGKEYKCKVSNKGLPSSIEKTISKAKGQPREPQVCTLPPSRDELTKNQVSLSCAVKGFYPSDIAVEWESNGQPENNYKTTPPVLDSDGSFFLVSKLTVDKSRWQQGNVFSCSVMHEALHNHYTQKSLSLSPGK
# chain 2: EVQLVESGGGLVQPGGSLRLSCAASGFSLTNYGVHWVRQAPGKGLEWLGVIWSGGNTDYNTPFTSRFTISRDNSKNTLYLQMNSLRAEDTAVYYCARALTYYDYEFAYWGQGTTVTVSSGGGGSGGGGSGGGGSDIQLTQSPSFLSASVGDRVTITCRASQSIGTNIHWYQQKPGKAPKLLIKYASESISGVPSRFSGSGSGTEFTLTISSLQPEDFATYYCQQNNNWPTTFGAGTKLEIKRAAADKTHTCPPCPAPPVAGPSVFLFPPKPKDTLMISRTPEVTCVVVDVSHEDPEVKFNWYVDGVEVHNAKTKPREEQYNSTYRVVSVLTVLHQDWLNGKEYKCKVSNKGLPSSIEKTISKAKGQPREPQVYTLPPCRDELTKNQVSLWCLVKGFYPSDIAVEWESNGQPENNYKTTPPVLDSDGSFFLYSKLTVDKSRWQQGNVFSCSVMHEALHNHYTQKSLSLSPGK
# notes: Trispecific antibody: 1 = HER3, 2 = CD3, 3 = EGFR; also called scDbhuU3x3-43-Fc(hole)Δab + scFvhu225-Fc(knob)Δab
# B4: scDb/Fab-Fc (2-1)+3, trivalent trispecific anti-EGFRxanti-HER3×anti-CD3 (other)
# chain: B3 chain 1
# heavy: EVQLVESGGGLVQPGGSLRLSCAASGFSLTNYGVHWVRQAPGKGLEWLGVIWSGGNTDYNTPFTSRFTISRDNSKNTLYLQMNSLRAEDTAVYYCARALTYYDYEFAYWGQGTTVTVSSASTKGPSVFPLAPSSKSTSGGTAALGCLVKDYFPEPVTVSWNSGALTSGVHTFPAVLQSSGLYSLSSVVTVPSSSLGTQTYICNVNHKPSNTKVDKKVEPKSCGTDKTHTCPPCPAPPVAGPSVFLFPPKPKDTLMISRTPEVTCVVVDVSHEDPEVKFNWYVDGVEVHNAKTKPREEQYNSTYRVVSVLTVLHQDWLNGKEYKCKVSNKGLPSSIEKTISKAKGQPREPQVYTLPPCRDELTKNQVSLWCLVKGFYPSDIAVEWESNGQPENNYKTTPPVLDSDGSFFLYSKLTVDKSRWQQGNVFSCSVMHEALHNHYTQKSLSLSPGK
# light: DIQLTQSPSFLSASVGDRVTITCRASQSIGTNIHWYQQKPGKAPKLLIKYASESISGVPSRFSGSGSGTEFTLTISSLQPEDFATYYCQQNNNWPTTFGAGTKLEIKRTVAAPSVFIFPPSDEQLKSGTASVVCLLNNFYPREAKVQWKVDNALQSGNSQESVTEQDSKDSTYSLSSTLTLSKADYEKHKVYACEVTHQGLSSPVTKSFNRGEC
# notes: Trispecific antibody: 1 = HER3, 2 = CD3, 3 = EGFR; also called scDbhuU3x3-43-Fc(hole)Δab + Fdhu225-Fc(knob)Δab + VLhu225-CLκ
# Target: T1, CD3 (UniProt P07766 23-207)
# T1 construct: whole, on cells; on cells it stands in the TCR/CD3 complex; also called CD3 on Jurkat cells
# Assay: flow cytometry, serial dilution on Jurkat cells (CD3-expressing), PE anti-human Fc detection, n = 1
# Description: Trivalent, trispecific antibodies were analyzed for their binding to tumor cell lines with different EGFR- and HER3-expression levels (Table 14) by flow cytometry. Adherent cells were washed with PBS and shortly trypsinized at 37° C. Trypsin was quenched with FCS-containing medium and removed by centrifugation (500×g, 5 min.). 1×10⁵ target cells/well (FaDu, LIM1215, SKBR-3, T-47-D, MCF-7 and Jurkat cells) were incubated with a serial dilution of trivalent, trispecific antibodies for 1 h at 4° C. After removing excess of recombinant protein by washing with PBA (PBS, 2% FBS, and 0.02% sodium azide), bound protein was detected using PE-conjugated anti-human Fc mAb (Jackson ImmunoResearch Laboratories Inc). Fluorescence was measured using MACSquant VYB (Miltenyi Biotec) and data were analyzed using FlowJo (Tree Star). Relative median fluorescence intensities (MFI) were calculated as followed: relative MFI=((MFIₛₐₘₚₗₑ-(MFIdetection-MFIcells))/MFIcells).
row,EC50 [nM],Binder
1,0.6,B1
2,0.8,B2
3,2.6,B3
4,1.1,B4
